The series can be described thus: yeast display, Sf9 membrane polyspecificity reagent, FACS + sequencing; frameworks hold sequencing errors. Summed up:
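Polyreactivity labels are assigned by the sorting gate from which each nanobody was recovered. The gates were low and high (top ~1%), set on anti-HA fluorescence for expression and streptavidin fluorescence for reagent binding. Before sorting, galactose-induced (36–48 hours) yeast display cells were stained for 1 hour at 4 °C with 10% biotinylated, detergent-solubilized Sf9 membrane reagent.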
With “QVQLVESGGGIVQAGGSLRLSCAASGSTYNLNALGWSRQAPGKERELVAAIDSGGRTNYADSVKGRFTISRDNAKNTVYVQMNSLKPEDTAVYYCAADVYAYPGSWYDYWGQGTQVTVSS”, the “polyreactivity (PSR sort gate)” value is “low polyreactivity”.

“QVQLVESGGGIVQAGGSLRLSCAASGYNFRSYVMGWYRQAPGKERELVAAISVSGGRTYYADSVKGRFTISRDNAKNTVYLQMNSLKPEDTAVYYCATDPYSYYWPSHMDYWGQGTQVTVSS”: the “polyreactivity (PSR sort gate)” value is given as “high polyreactivity”.

“QVQLVESGGGIVQAGGSLRLSCAATGNTFRYYTMGWYRKAPGKERELVAAINYRGSRTYYADSVKGRFTISRDNAKNTVYLQINSLKPEDTAVYYCARAYNAGYRYRSDYWGQGTQVTVSS”: the “polyreactivity (PSR sort gate)” value is given as “high polyreactivity”.

Consider “QVQLVESGGGIVQAGGSLRLSCATSGRIFDNNPKGRYRQAPGKESEMVAAIDWRGGTTDYADSVKGRFTISRDNAKNTVYFQMKSLKPEDTAVYYSNARGLNYYGRTFNYWGQGTQVTVSS”, for which the “polyreactivity (PSR sort gate)” value was “low polyreactivity”.

“QVQLVESGGGIVQAGGSLRLSCGASGSIFVTYTMGWYRQAPGKERELVAAITSDGRTYYADSVKGRFTISRDNAKNTVYLQMNCLKPEDTAVYYCAADSSGYYWFNYWGQGTQVTVSS”: the “polyreactivity (PSR sort gate)” value was “low polyreactivity”.

As for “QVQLVESGGGIVQAGGSLRLSFAASGSTFAGYAMGLYREAPGKERELVATFTYSGGSTYYADSVKGRFSISRDNAKNTVYLQMNSLKPEDTAVYYCAKNASYLWGYEYWGQGTQVTVSS”, the “polyreactivity (PSR sort gate)” value is given as “low polyreactivity”.

For the sequence “QVQLVESGGGIVQAGGSLRLSSAASGLTFAYNTMGWYRQAPGIEREFVASISSSGGNTYYADSVKGRFTISRDNAKNTVYLQMHSLKPEDTAVYYCAAKKKYHYVATYKRFENWGQGTHVTVSS”, the “polyreactivity (PSR sort gate)” value is recorded as “low polyreactivity”.

As to “QVQLVESGGGIVQAGGSLRLSSAASGRIFDTNAMGWYRQAPGKERELVAAITGRGGGTYYADSVKGRFTISRDNAKNTVYLQMNSLKPEDTAVYYCNAFAPIYRHYSWGSGLDYWGQGTLVTVSS”, the “polyreactivity (PSR sort gate)” value is reported as “high polyreactivity”.

With “QVQLVESGGGIVQAGGSLRLSSAASGSIFYYYAKGWYRQAPGKERELVATINISDGSTYYADSVKGRFTISRDNAKNTVYLQMNSLKPEDTAVYYCAAYYYFLDYDYWGQGTQVTVSS”, the “polyreactivity (PSR sort gate)” value is “low polyreactivity”.

Turning to “QVQLVESGGGIVQAGGSLRLTCAASGRIFYYYAMGWYRQAPGKEREFVAASSRSGGSTYYADSVKGRFTISRDNAKNTVYLQMNSLKPEDTAVYYCNAVRSYRGDFKYDWGQGTQVTVSS”, the “polyreactivity (PSR sort gate)” value was “high polyreactivity”.

Turning to “QVQLVESGGGIVQAGGSLRLTCDASGFTFVINDMGRYRQARGKERELVADITSGGDTYYADSVKGRFTISRDNAKNSVYFHRNSLKPEDTAVYFCAADIYPDWIYLLYGYWGQGTQLTVSS”, the “polyreactivity (PSR sort gate)” value was “low polyreactivity”.

As to “QVQLVESGGGIVQAGGSLRVSCAASGRTFYSSAMGWYRQAPGKERELVAAISWNGGSTYYADSVKGRFTISRDNAKNTVYLQMNSLNPEDTAVYYCAATYLLRGDAYYSWGQGTQVTVSS”, the “polyreactivity (PSR sort gate)” value is on record as “high polyreactivity”.

As for “QVQLVESGGGIVQAGGSLSLSCAASGRTFIRNAIGCYRQAPGKERELVAAINSGGITNYADSVKGRFTISRDNANNTVYLQMNSLKPEDTAVYYCNARQVLYGLYLRAYPYEYWGQGTQVTVSS”, the “polyreactivity (PSR sort gate)” value is recorded as “low polyreactivity”.

In the case of “QVQLVESGGGIVQAGGSLSLSCAASGSTFSIYAMGWSRQATGTEREVVAAISGSGSRTYYADSVKGRFTISRDNEKNSVYLQMNMLKPEDTAVYYCAALGRHRDGFDFNYWGQGTQVTLSS”, the “polyreactivity (PSR sort gate)” value is “high polyreactivity”.

Turning to “QVQLVESGGGIVQAGGTLRLSCAASGSTFFYYVMGWYRQAPGKERELVAAITSSGGGTYYADSVKGRFTISRDNAKNTVYLQMKSLKPEDTAVYYCAKPVWWRDYRHGGRFGYWGQGTQVTVSS”, the “polyreactivity (PSR sort gate)” value was “low polyreactivity”.

“QVQLVESGGGIVQAGRSLRLSCAASGFTFYWYAMGWYRQAPGKERELVAAISWSGGSTYYADSVKGRFTISRDNETNTVYLQMYSLKPEDTAVYYCAADNYFFGDEDYWGQGTQVTVSS”: the “polyreactivity (PSR sort gate)” value is “high polyreactivity”.

“QVQLVESGGGIVQAGRSLRLSCSASGFIFAIKAMGWYRQAPGKERELVAAITGGGSTSYADSVKGRFTISRDNAKNTVYLQMNSLKPEDTAVYYCATDRLTYTKYGYWGQGTQVTVSS”: the “polyreactivity (PSR sort gate)” value is reported as “low polyreactivity”.

In the case of “QVQLVESGGGIVQAGRSLRLTCAASGITFKAYTMGWYRQAPGKERELVATISRGGRTYADSVKGRFTISRDNAKNTVYLQINSLKPEDTAVYYCAADKYWAQNDYWGQGTQVTVSS”, the “polyreactivity (PSR sort gate)” value is on record as “low polyreactivity”.

“QVQLVESGGGIVQAVGSLRLSCAASGFTLERYAMVWYRPAPGKERELVAAITQSGVSTYYADSVKGRFTISRDNAKNTVYLQMNSLKPEDTAVYYCNALRIYHHYEYDYWGQGTQVTVSS”: the “polyreactivity (PSR sort gate)” value is reported as “high polyreactivity”.

With “QVQLVESGGGIVQEGRSLSISCAASGSTFYTYAMGWYRPAPGKERELVAAITQSGGRTYYADSVKGRFTISRDNANNTVYLEMNSLKPEDTAVDYCNAPPYTGYDWGQGTQVSVSS”, the “polyreactivity (PSR sort gate)” value is given as “high polyreactivity”.

Turning to “QVQLVESGGGKVKAGGSLRISCAASGRTYRYAMGWYRQAPGKERELVAAITSGGRTNYADSVKGRFTISRDNAKNTVYLQMNSLKPEDTAVYYCAAQWYTVITSWYGYWGQGTQVTVSS”, the “polyreactivity (PSR sort gate)” value is reported as “low polyreactivity”.

Turning to “QVQLVESGGGKVQAGGSLRLSCAAYGIIFYPYDMGWNRQSPAKERELVAAISIGGGSTYYADSVKGRFTISRDNAKNTVYLQMNSLKPEDNAVYYCAAGTPYGILGYYYWGQGSQVTVSS”, the “polyreactivity (PSR sort gate)” value was “low polyreactivity”.

On to “QVQLVESGGGKVQAVGSLRLSCAASGRTFYPYAMGWYRQAPGKERELVAVITWSTGNTYYADSVKGRFTISRDNAKNTVYLQMNSLKPEDTAVYYCAAAYYRYRGTIRYYYWGQGTQVTVSS”, for which the “polyreactivity (PSR sort gate)” value is “high polyreactivity”.

As for “QVQLVESGGGLAQAGGSLRLSCAASGRTFRTYTMGWYRQAPGKERELVAAISWSGSSTYYADSVKGRFTISRDNAKNTVYLQMNSLKPEDTAVYYCAARGLYDYGYWGQGTQVTVSS”, the “polyreactivity (PSR sort gate)” value is given as “high polyreactivity”.

Take “QVQLVESGGGLDHAGGRLRLSCAASGSIFYENVMGWYRQAPGKERELVAGISRSGGRTYYADSVKGSFTISRDYAKNTVYLQMNSLQPVDTAVYYCAALTPRNRYRKFDYWGQGTQVTVSS”: the “polyreactivity (PSR sort gate)” value was “high polyreactivity”.

As for “QVQLVESGGGLDLAGGSLRLSCAASGRTFLYYAMGWYRQAPWKDREFVASIRRGGGSTYYADSVKGRFTFSRDNAKHTVYLQMHSLKPVDTAVYYCAAQPYTLSLFRLNYDYWGQGTQVTVSS”, the “polyreactivity (PSR sort gate)” value is on record as “low polyreactivity”.

Regarding “QVQLVESGGGLDQAAGSLRLTCAASGTTFEYYAMGLYRQAPAKEREFVAAITGSGASTYYADSVKGRFTISRDNAKNTVYLQMNSLKPEDTAVYYCIALSALAVEDGYWGQGTQVTVSS”, the “polyreactivity (PSR sort gate)” value is “low polyreactivity”.

Take “QVQLVESGGGLDQAGGCLRLSCAASGSIFRTYAMGWYRQAPGKERELVADITRRGGSTYYADSVKGRFTISRDNAKYTVNLQLNSLKPEETAVYYCAAYGYTSAGDSARLDYWGQGSQVTVSS”: the “polyreactivity (PSR sort gate)” value is “high polyreactivity”.

As for “QVQLVESGGGLDQAGGRLRLSCAASGRTFNVNVMGWYRQSPGKERELVAAIRYTGGSTYADSVKGRFTISRDNAKNTVYLQMNSLKPEDTAVDYCNADTFFPFDHGMDYWGQGTQVTVSS”, the “polyreactivity (PSR sort gate)” value was “low polyreactivity”.

Turning to “QVQLVESGGGLDQAGGSHRLSCAASGRIFYIYTMGWYRQPPGKEREFVAGINWNGGSTYYADSVKGRFTISRDNAKNTVYLQMNSLKPEVTAVYYCNADQYWDRYYYWGQGTQVTVSS”, the “polyreactivity (PSR sort gate)” value is given as “low polyreactivity”.

Take “QVQLVESGGGLDQAGGSLPLSCAASGRTFRYYDRGSYRQAPGKERELVARISISGAGTYYADSVKGRFTISRDNAKNTVYFEMNSLKPEDTAVYYCAADLFWWQKTISGGDYWGQGTQVNVSS”: the “polyreactivity (PSR sort gate)” value was “low polyreactivity”.

Regarding “QVQLVESGGGLDQAGGSLPLTCAASGSIFDPNAMGWYRQAPGKERELVANNTIGGRTNYADSVKGRFTISRDNPKNTVYLQMNSLKPDDTAVFYCAKDSPYTSVTVLAPIIYESWGKGTQVTVSS”, the “polyreactivity (PSR sort gate)” value is reported as “low polyreactivity”.

Take “QVQLVESGGGLDQAGGSLRISCAASGRTFRNYAMGSYRQAPGKERELVPAISFSGGRTYYADSVKGRFTISRDNAKNTVYLQMNSLKPEDTAVYYCAKVSYYRGDGDEDYGYWGQGTQVPVSS”: the “polyreactivity (PSR sort gate)” value is given as “high polyreactivity”.

As to “QVQLVESGGGLDQAGGSLRLICAASGITFFPYAMVWYRQAPGKEKELVAAISSGSSTYYADSVKGRFTISRDNAKNTVYLQMNSLKPEDTAVYYCATRRDLHDRYEYDYWGQGTQVTVSS”, the “polyreactivity (PSR sort gate)” value is “low polyreactivity”.

For “QVQLVESGGGLDQAGGSLRLICAASGLTFYLYAMGWYRQAPGKERELVAAISTRGGSTRYADSVKGRFTISRDNAKNTVYLQMNSLKPEDTAVFDCNAVSKWLEYDYWGQGTQVTVSS”, the “polyreactivity (PSR sort gate)” value was “high polyreactivity”.

“QVQLVESGGGLDQAGGSLRLICAASGSTFYIYAMGWYRQAPGKEREFVAAIDFSGSSTYADSVKGRFTISRDNAKNPVYLQMNTLKPEDTAVYYCAAYQIYQYDGPYDYWGQGTQVTVSS”: the “polyreactivity (PSR sort gate)” value is listed as “low polyreactivity”.

“QVQLVESGGGLDQAGGSLRLISAASGYVMGWYRQAPEKEKELVATITRGTSTYYADSVKGRFTISRDNAKNTVYFQMNSLKPDDTAVYYCAARTTSGEWPPGNICTYLYDYWGQGTQVTVSS”: the “polyreactivity (PSR sort gate)” value was “low polyreactivity”.

In the case of “QVQLVESGGGLDQAGGSLRLRCAASGSTFYVNAIGWYRQAPGKERELVAAITSTGTTHNADSVKGRFTISRDNAKKTVYLQMNSLKPEDTAVYYCAAGDQYKTRRNGYGYWGQGTQVTVSS”, the “polyreactivity (PSR sort gate)” value was “high polyreactivity”.

Regarding “QVQLVESGGGLDQAGGSLRLSCAASARIYGYYANGWYRQAPGKERELVAAINSGGSTYYADSVKGRFTISRDNAKNTVYLQMNSLKPEDTAVYYCAAYKFSVHGYDYWGQGTQGTVSS”, the “polyreactivity (PSR sort gate)” value is given as “high polyreactivity”.

As for “QVQLVESGGGLDQAGGSLRLSCAASGFIFGRYTMVWYRPAPGKEMELVAAISRGGITNYADSEKGRFTISRDNAKNTVYLQMNSLKPEDTAVYYCATTRDYWRGRSYYYWGQGTQVTVSS”, the “polyreactivity (PSR sort gate)” value is reported as “high polyreactivity”.

As to “QVQLVESGGGLDQAGGSLRLSCAASGFIFLDYAMGWYRRAPGKERELVAAISSRGARTYYADSVKGRFTISRDNAKNTFYLQMNSLKPEDTAVYYCAARGPLDRYGYWGQGTQVTVSS”, the “polyreactivity (PSR sort gate)” value is “high polyreactivity”.

(Values after the nanobody polyreactivity screen of Harvey et al. (2022).)
